B1: RNA polymerase II subunit A C-terminal domain phosphatase (Homo sapiens), Q9Y5B0 (parent)
chain: MEVPAAGRVPAEGAPTAAVAEVRCPGPAPLRLLEWRVAAGAAVRIGSVLAVFEAAASAQSSGASQSRVASGGCVRPARPERRLRSERAGVVRELCAQPGQVVAPGAVLVRLEGCSHPVVMKGLCAECGQDLTQLQSKNGKQQVPLSTATVSMVHSVPELMVSSEQAEQLGREDQQRLHRNRKLVLMVDLDQTLIHTTEQHCQQMSNKGIFHFQLGRGEPMLHTRLRPHCKDFLEKIAKLYELHVFTFGSRLYAHTIAGFLDPEKKLFSHRILSRDECIDPFSKTGNLRNLFPCGDSMVCIIDDREDVWKFAPNLITVKKYVYFQGTGDMNAPPGSRESQTRKKVNHSRGTEVSEPSPPVRDPEGVTQAPGVEPSNGLEKPARELNGSEAATPRDSPRPGKPDERDIWPPAQAPTSSQELAGAPEPQGSCAQGGRVAPGQRPAQGATGTDLDFDLSSDSESSSESEGTKSSSSASDGESEGKRGRQKPKAAPEGAGALAQGSSLEPGRPAAPSLPGEAEPGAHAPDKEPELGGQEEGERDGLCGLGNGCADRKEAETESQNSELSGVTAGESLDQSMEEEEEEDTDEDDHLIYLEEILVRVHTDYYAKYDRYLNKEIEEAPDIRKIVPELKSKVLADVAIIFSGLHPTNFPIEKTREHYHATALGAKILTRLVLSPDAPDRATHLIAARAGTEKVLQAQECGHLHVVNPDWLWSCLERWDKVEEQLFPLRDDHTKAQRENSPAAFPDREGVPPTALFHPMPVLPKAQPGPEVRIYDSNTGKLIRTGARGPPAPSSSLPIRQEPSSFRAVPPPQPQMFGEELPDAQDGEQPGPSRRKRQPSMSETMPLYTLCKEDLESMDKEVDDILGEGSDDSDSEKRRPEEQEEEPQPRKPGTRRERTLGAPASSERSAAGGRGPRGHKRKLNEEDAASESSRESSNEDEGSSSEADEMAKALEAELNDLM

Variants of: B1
Details: with t2fa_human GTF2F1, P35269
Chain of t2fa_human GTF2F1, P35269 (P35269 whole entry): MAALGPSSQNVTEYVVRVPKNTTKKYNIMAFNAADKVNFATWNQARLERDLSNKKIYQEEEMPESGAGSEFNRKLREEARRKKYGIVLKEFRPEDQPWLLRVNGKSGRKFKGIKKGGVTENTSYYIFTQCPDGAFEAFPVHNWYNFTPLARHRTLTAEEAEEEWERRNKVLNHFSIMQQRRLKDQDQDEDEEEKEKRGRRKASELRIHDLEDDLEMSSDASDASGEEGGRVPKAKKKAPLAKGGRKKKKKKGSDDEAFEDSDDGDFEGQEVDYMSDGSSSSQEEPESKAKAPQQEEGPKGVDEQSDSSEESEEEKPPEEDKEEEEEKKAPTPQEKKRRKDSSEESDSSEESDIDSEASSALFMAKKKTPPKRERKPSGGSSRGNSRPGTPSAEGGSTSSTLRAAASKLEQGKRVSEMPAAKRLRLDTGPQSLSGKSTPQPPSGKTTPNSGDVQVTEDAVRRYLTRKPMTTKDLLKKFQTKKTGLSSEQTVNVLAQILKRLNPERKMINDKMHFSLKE

Q: For E956A;L957A, which “effect of a mutation on the interaction” value is on record?
A: decreasing interaction

Source: IntAct's records for PubMed 12732728
